Laboratory results: US20240252534A1 (AUTOLUS, published 2024)
Each block holds one binder with its values, some of them ahead of it.

Assays:
[1] = biological target: T1, human PSMA expressed on cells (human, UniProt Q04609 1-750); assay: flow cytometry histograms, detection aMu-Fc 647, concentration and axis values not given
T1 construct: whole, on cells; also called SupT1-PSMA; SupT1 cells expressing PSMA

[2] = biological target: T1, human PSMA expressed on cells; assay: flow cytometry, MFI against concentration, SupT1-PSMA clone 30 (high)
[3] = biological target: T2, Recombinant PSMA-His (sino biologicals) (UniProt Q04609 44-750); assay: SPR, Biacore T200; VHH-Fc captured on Protein A chip, PSMA-His as analyte, 1:1 Langmuir fit
T2 construct: also called soluble PSMA; recombinant soluble PSMA; not shown: His tag
Protocol: (§1) Kinetic affinity for soluble PSMA was determined using Biacore T200 instrument. Recombinant purified antibodies were captured on a Protein A chip #7 at 10 μl/min for 60 s, aiming at 100 RU. Recombinant PSMA-His (sino biologicals) dialysed in HBS-P+ buffer was used as analyte from 1 μM with 1:2 serial dilutions for 10 points and flown at 30 μl/min for 150 s with 300 s dissociation time. A double reference subtraction was applied. Sensograms fitted with 1:1 Langmuir model.
Affinity was determined by surface plasmon resonance on a Biacore T200 instrument against recombinant soluble PSMA. Affinities were measured in the nM range for both antibodies (Table 3)

[4] = biological target: T2, Recombinant PSMA-His (sino biologicals); assay: SPR, Biacore T200, pH 7.4; antibody captured on Protein A chip, PSMA-His as analyte, 1:1 Langmuir fit
Protocol: as §1, with “soluble PSMA at different pH was determined” for “soluble PSMA was determined”, “A chip #6, pre-equilibrated the required PH (pH7.4, pH7, pH6.5 and pH6) using buffered HBS-P+, at 10” for “A chip #7 at 10”, “dialysed in HBS-P+buffer and adjusted to the required PH was used” for “dialysed in HBS-P+ buffer was used”

[5] = biological target: T2, Recombinant PSMA-His (sino biologicals); assay: SPR, Biacore T200, pH 7; antibody captured on Protein A chip, PSMA-His as analyte, 1:1 Langmuir fit
Protocol: as §1, with “soluble PSMA at different pH was determined” for “soluble PSMA was determined”, “A chip #6, pre-equilibrated the required PH (pH7.4, pH7, pH6.5 and pH6) using buffered HBS-P+, at 10” for “A chip #7 at 10”, “dialysed in HBS-P+buffer and adjusted to the required PH was used” for “dialysed in HBS-P+ buffer was used”

[6] = biological target: T2, Recombinant PSMA-His (sino biologicals); assay: SPR, Biacore T200, pH 6; antibody captured on Protein A chip, PSMA-His as analyte, 1:1 Langmuir fit
Protocol: as §1, with “soluble PSMA at different pH was determined” for “soluble PSMA was determined”, “A chip #6, pre-equilibrated the required PH (pH7.4, pH7, pH6.5 and pH6) using buffered HBS-P+, at 10” for “A chip #7 at 10”, “dialysed in HBS-P+buffer and adjusted to the required PH was used” for “dialysed in HBS-P+ buffer was used”

[7] = biological target: T2, Recombinant PSMA-His (sino biologicals); assay: SPR, Biacore T200, pH 6.5; antibody captured on Protein A chip, PSMA-His as analyte, 1:1 Langmuir fit
Protocol: as §1, with “soluble PSMA at different pH was determined” for “soluble PSMA was determined”, “A chip #6, pre-equilibrated the required PH (pH7.4, pH7, pH6.5 and pH6) using buffered HBS-P+, at 10” for “A chip #7 at 10”, “dialysed in HBS-P+buffer and adjusted to the required PH was used” for “dialysed in HBS-P+ buffer was used”

T2 sequence (Q04609 44-750 limits assumed): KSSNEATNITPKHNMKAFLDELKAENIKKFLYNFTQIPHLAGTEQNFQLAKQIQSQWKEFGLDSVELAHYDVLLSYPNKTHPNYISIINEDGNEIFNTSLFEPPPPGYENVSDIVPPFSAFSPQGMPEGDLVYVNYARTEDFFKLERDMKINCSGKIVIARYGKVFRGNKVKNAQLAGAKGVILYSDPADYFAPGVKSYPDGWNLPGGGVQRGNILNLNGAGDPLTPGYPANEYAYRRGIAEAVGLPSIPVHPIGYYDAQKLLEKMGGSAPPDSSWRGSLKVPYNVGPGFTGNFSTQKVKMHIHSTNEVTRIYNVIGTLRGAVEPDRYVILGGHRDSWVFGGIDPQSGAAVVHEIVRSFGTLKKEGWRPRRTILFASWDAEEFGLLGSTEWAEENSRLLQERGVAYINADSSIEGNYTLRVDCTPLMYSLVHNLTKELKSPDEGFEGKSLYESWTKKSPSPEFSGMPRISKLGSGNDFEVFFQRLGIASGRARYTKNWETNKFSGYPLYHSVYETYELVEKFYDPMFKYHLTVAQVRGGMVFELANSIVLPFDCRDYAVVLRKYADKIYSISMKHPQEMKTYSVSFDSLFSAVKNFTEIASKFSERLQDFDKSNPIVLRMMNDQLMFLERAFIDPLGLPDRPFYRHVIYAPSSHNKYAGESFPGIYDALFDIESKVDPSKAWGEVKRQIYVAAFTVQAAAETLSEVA
T1 sequence (Q04609 whole entry): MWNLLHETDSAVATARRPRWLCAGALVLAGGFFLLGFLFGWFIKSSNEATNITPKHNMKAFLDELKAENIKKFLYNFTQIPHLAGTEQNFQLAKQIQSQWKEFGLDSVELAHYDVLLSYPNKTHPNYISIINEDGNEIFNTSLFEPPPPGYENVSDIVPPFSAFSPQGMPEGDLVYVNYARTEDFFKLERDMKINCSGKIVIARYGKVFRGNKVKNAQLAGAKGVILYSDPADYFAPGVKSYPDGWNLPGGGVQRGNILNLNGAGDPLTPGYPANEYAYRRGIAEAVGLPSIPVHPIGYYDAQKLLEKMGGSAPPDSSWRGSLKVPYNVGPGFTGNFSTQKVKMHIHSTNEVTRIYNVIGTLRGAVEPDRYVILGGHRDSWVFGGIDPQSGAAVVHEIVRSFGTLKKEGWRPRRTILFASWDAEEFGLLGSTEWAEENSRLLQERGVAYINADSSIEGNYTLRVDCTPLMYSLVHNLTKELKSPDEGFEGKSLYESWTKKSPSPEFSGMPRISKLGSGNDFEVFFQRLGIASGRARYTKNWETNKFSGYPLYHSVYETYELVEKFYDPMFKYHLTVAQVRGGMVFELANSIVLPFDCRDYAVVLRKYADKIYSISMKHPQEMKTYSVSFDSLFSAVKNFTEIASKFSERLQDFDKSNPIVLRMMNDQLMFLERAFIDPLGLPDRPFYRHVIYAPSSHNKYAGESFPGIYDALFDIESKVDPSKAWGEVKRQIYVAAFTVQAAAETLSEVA

binding result [1]: binds
B1: NGS2 dAb in murine IgG2A-Fc format (Fc fusion)
chain: QVQLQESGGGWVQAGGSLRLSCAASGRTSRTYTMGWFRQAPGKDGVFVAGITWSTWSSDKTQYLDSVNSRFTISRDNARNTVYLQMNNLKPEDTAVYYCAATPRYYGVAVPTTRGPYDYWGQGTQVTVSS
notes: also called clone 2; dAb 2; not shown: murine IgG2A Fc

EC50 (read off the curve) [2]: ~1 µg/mL
B2: dAb clone B8, C Myc tagged (VHH)
VHH: QVQLQQSGGGLVQAGGSLRLSCAASGRTYGRYVMGWFRQIPGKEREFVAAISWSGSNTNYADSVKGRFTISRDNAKNTLYLQMNSLKPEDTAVYYCAASGQWIIPTTARGYDDWGQGTQVTVSS
notes: Monomeric dAb from IPTG-induced TG1 supernatant, detected with anti-C Myc; also called B08; not shown: C-Myc tag

EC50 (read off the curve) [2]: ~0.7 µg/mL
B4: dAb clone G7, C Myc tagged (VHH)
VHH: QVQLQESGGGSVQAGGSLRLSCAASERTFSTYGTGWFRQAPGKEREFVAGISGRGGYTSYIDSVKGRFTTSRDNAKNTVYLQMNSLKPEDTAVYYCAADRRMVWGTVRSPDEYDSWGQGTQVTVSS
notes: Monomeric dAb from IPTG-induced TG1 supernatant, detected with anti-C Myc; also called G07; not shown: C-Myc tag

Second part, the binder before the results:

B3: B08 VHH-Fc (Fc fusion)
chain: B2 VHH
notes: also called B8; clone B8; not shown: Fc part of the VHH-Fc format
Kd [3]: 212 nM

B5: G07 VHH-Fc (Fc fusion)
chain: B4 VHH
notes: also called G7; clone G7; not shown: Fc part of the VHH-Fc format
Kd [3]: 316 nM

B6: 7A12 humanised (antibody, V domains shown)
VH: QVQLVQSGAEVKKPGASVKVSCKASGYTFTSSWMNWVRQAPGQGLEWMGRIYPGDGDTNYAQKFQGRVTMTRDTSISTAYMELSRLRSDDTAVYYCARGTGYLWYFDVWGQGTMVTVSS
VL: EIVLTQSPATLSLSPGERATLSCRASQDINENLAWYQQKPGQAPRLLIYYTSNRATGIPARFSGSGSGRDFTLTISSLEPEDFAVYYCQQYDNLPFTFGQGTKVEIKR
notes: Tested as 'recombinant purified antibody' captured on a Protein A chip; also called hu7A12; AU number 42396
Kd [4]: 3.66 nM | Kd [5]: 3.3 nM | Kd [6]: 0.532 nM | Kd [7]: 1.71 nM

B7: 7A12 (antibody, V domains shown)
VH: QFQLQQSGPELVKPGASVKISCKASGYAFSSSWMNWVRQRPGKGLEWIGRIYPGDGDTTYNGNFKDKATLTAAKSSSTAYIQINSLTSEDSAVYFCARGTGYLWYFDVWGAGTTVTVSS
VL: DIQMTQSPSSLSTSLGGKVTITCKASQDINENVAWYQHKPGKGPRLLIWYTSALQSGIPSRFSGSGSGRDYSFSISNLEPEDIATYYCQQYDNLPFTFGSGTKLEIKR
notes: Tested as 'recombinant purified antibody' captured on a Protein A chip; also called mu7A12; AU number 30531
Kd [4]: 2.29 nM | Kd [5]: 1.77 nM | Kd [6]: 0.574 nM | Kd [7]: 1.02 nM
